Test results reported in PMC5832979, “Ligand complex structures of L‐amino acid oxidase/monooxygenase from Pseudomonas sp. AIU 813 and its conformational change” (FEBS Open Bio, 2018).

Key:
L-AAO/MOG [1] = molecular target: T1, L-AAO/MOG (Pseudomonas sp. AIU 813, UniProt W6JQJ6); assay: X-ray crystal structure, […] Å; type: binding; settings: bound cofactor; redox state mixed or uncertain; L-Lys complex
T1 construct: gene laao; N-terminally His-tagged, pET15b-laao/mog, expressed in E. coli; homodimer with FAD
T1 sequence (W6JQJ6 1-560): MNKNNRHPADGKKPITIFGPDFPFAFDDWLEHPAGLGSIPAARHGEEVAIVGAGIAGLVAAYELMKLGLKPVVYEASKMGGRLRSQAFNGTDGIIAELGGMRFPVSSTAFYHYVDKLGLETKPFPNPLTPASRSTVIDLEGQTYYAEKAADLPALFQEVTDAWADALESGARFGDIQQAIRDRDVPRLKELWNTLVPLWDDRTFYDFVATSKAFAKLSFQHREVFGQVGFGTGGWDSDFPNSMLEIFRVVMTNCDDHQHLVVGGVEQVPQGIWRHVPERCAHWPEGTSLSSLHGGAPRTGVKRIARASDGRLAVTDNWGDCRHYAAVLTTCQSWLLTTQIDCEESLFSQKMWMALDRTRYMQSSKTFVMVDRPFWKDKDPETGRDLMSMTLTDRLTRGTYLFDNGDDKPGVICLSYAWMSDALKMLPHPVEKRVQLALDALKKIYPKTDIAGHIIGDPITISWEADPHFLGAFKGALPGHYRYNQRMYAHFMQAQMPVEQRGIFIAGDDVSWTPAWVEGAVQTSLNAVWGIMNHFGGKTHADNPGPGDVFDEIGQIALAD

L-AAO/MOG [2] = molecular target: T1, L-AAO/MOG; assay: X-ray crystal structure, soaking, […] Å; type: binding; settings: active site, also second site at dimer interface; 10 mM soak; modelled as unreacted substrate, redox state uncertain
N=C(N)NCCC[C@H](N)C(=O)O = tested on: T2, N=C(N)NCCC[C@H](N)C(=O)O; assay: purified protein; type: biochemical, Pseudomonas sp. AIU 813; settings: oxidase reaction, borate-NaOH pH 9.0, 30 °C, pH 9.0
T2 construct: N-terminally His-tagged, pET15b-laao/mog, expressed in E. coli; homodimer with FAD

NCCCC[C@H](N)C(=O)O = tested on: T3, NCCCC[C@H](N)C(=O)O; assay: purified protein; type: biochemical, Pseudomonas sp. AIU 813; settings: 100 mM potassium phosphate pH 7.0, 30 °C
T3 construct: N-terminally His-tagged, pET15b-laao/mog, expressed in E. coli; homodimer with FAD

L-AAO/MOG [3] = molecular target: T1, L-AAO/MOG; assay: X-ray crystal structure, soaking, […] Å; type: binding; settings: active site, also second site; 20 mM soak; density relatively ambiguous; modelled as unreacted substrate
L-AAO/MOG [4] = molecular target: T1, L-AAO/MOG; assay: X-ray crystal structure, soaking, […] Å; type: binding; settings: active site, also second site; 20 mM soak; density relatively ambiguous; modelled as unreacted substrate; remark: listed apart in the source
[5] = molecular target: the molecule itself; assay: crystal structure; sitting-drop vapor diffusion at 20 °C, 20% PEG3350 and 0.15 M DL-malic acid pH 7.0; crystals soaked with 10 mM L-Lys, 20 mM L-Orn or 20 mM L-Arg; tetramer (two biological dimers) in the asymmetric unit
purified protein [6] = substrate: NCCC[C@H](N)C(=O)O; assay: purified protein; settings: borate-NaOH pH 9.0, 30 °C
purified protein [7] = substrate: N=C(N)NCCC[C@H](N)C(=O)O; assay: purified protein; type: biochemical, Pseudomonas sp. AIU 813; settings: borate-NaOH pH 9.0, 30 °C, pH 9.0
purified protein [8] = substrate: NCCCC[C@H](N)C(=O)O; assay: purified protein; type: biochemical, Pseudomonas sp. AIU 813; settings: 100 mM potassium phosphate pH 7.0, 30 °C, pH 7.0

Cc1cc2nc3c(=O)[nH]c(=O)nc-3n(C[C@H](O)[C@H](O)[C@H](O)COP(=O)(O)OP(=O)(O)OC[C@H]3O[C@@H](n4cnc5c(N)ncnc54)[C@H](O)[C@@H]3O)c2cc1C [FAD]
X-ray crystal structure, 2.10 Å (L-AAO/MOG [1]): FAD and L‐Lys molecules are shown as yellow and magenta sticks

NCCCC[C@H](N)C(=O)O [L-Lys]
X-ray crystal structure, soaking, 2.10 Å (L-AAO/MOG [2]): electron density map for a L‐Lys molecule was clearly observed in the substrate binding pocket

L-AAO/MOG (Pseudomonas sp. AIU 813; D238F)
Km (N=C(N)NCCC[C@H](N)C(=O)O): 80 ± 18 µM
kcat (N=C(N)NCCC[C@H](N)C(=O)O): 0.1 ± 0.01 s⁻¹
kcat/Km (N=C(N)NCCC[C@H](N)C(=O)O): 1300 ± 100 M⁻¹ s⁻¹
Km (NCCCC[C@H](N)C(=O)O; monooxygenase reaction): 72 ± 3 µM
kcat (NCCCC[C@H](N)C(=O)O; monooxygenase reaction): 0.8 ± 0.04 s⁻¹
kcat/Km (NCCCC[C@H](N)C(=O)O; monooxygenase reaction): 11000 ± 1000 M⁻¹ s⁻¹
Km (NCCCC[C@H](N)C(=O)O; oxidase reaction, pH 7.0): 49 ± 9 µM
kcat (NCCCC[C@H](N)C(=O)O; oxidase reaction, pH 7.0): 0.17 ± 0.01 s⁻¹
kcat/Km (NCCCC[C@H](N)C(=O)O; oxidase reaction, pH 7.0): 3500 ± 200 M⁻¹ s⁻¹

N=C(N)NCCC[C@H](N)C(=O)O [L-Arg]
X-ray crystal structure, soaking, 2.30 Å (L-AAO/MOG [3]): The structures of L‐AAO/MOG complexed with either L‐Lys, L‐Orn, or L‐Arg were determined

L-AAO/MOG (Pseudomonas sp. AIU 813; D238E)
Km (NCCCC[C@H](N)C(=O)O; monooxygenase reaction): 43 ± 1 µM
kcat (NCCCC[C@H](N)C(=O)O; monooxygenase reaction): 8.1 ± 0.6 s⁻¹
kcat/Km (NCCCC[C@H](N)C(=O)O; monooxygenase reaction): 190000 ± 10000 M⁻¹ s⁻¹
Km (NCCCC[C@H](N)C(=O)O; oxidase reaction): 18 ± 6 µM
kcat (NCCCC[C@H](N)C(=O)O; oxidase reaction): 2.3 ± 0.3 s⁻¹
kcat/Km (NCCCC[C@H](N)C(=O)O; oxidase reaction): 130000 ± 10000 M⁻¹ s⁻¹

L-AAO/MOG (Pseudomonas sp. AIU 813; D238A)
Km (N=C(N)NCCC[C@H](N)C(=O)O): 410 ± 10 µM
kcat (N=C(N)NCCC[C@H](N)C(=O)O): 0.1 ± 0.02 s⁻¹
kcat/Km (N=C(N)NCCC[C@H](N)C(=O)O): 240 ± 60 M⁻¹ s⁻¹
Km (NCCCC[C@H](N)C(=O)O; monooxygenase reaction): 260 ± 20 µM
kcat (NCCCC[C@H](N)C(=O)O; monooxygenase reaction): 2.7 ± 0.4 s⁻¹
kcat/Km (NCCCC[C@H](N)C(=O)O; monooxygenase reaction): 10000 ± 1000 M⁻¹ s⁻¹
Km (NCCCC[C@H](N)C(=O)O; oxidase reaction, pH 7.0): 610 ± 50 µM
kcat (NCCCC[C@H](N)C(=O)O; oxidase reaction, pH 7.0): 0.5 ± 0.03 s⁻¹

NCCC[C@H](N)C(=O)O [L-Orn]
X-ray crystal structure, soaking, 2.00 Å (L-AAO/MOG [4]): The structures of L‐AAO/MOG complexed with either L‐Lys, L‐Orn, or L‐Arg were determined

B1: L‐Amino acid oxidase/monooxygenase from Pseudomonas sp. AIU 813 (enzyme)
chain: MNKNNRHPADGKKPITIFGPDFPFAFDDWLEHPAGLGSIPAARHGEEVAIVGAGIAGLVAAYELMKLGLKPVVYEASKMGGRLRSQAFNGTDGIIAELGGMRFPVSSTAFYHYVDKLGLETKPFPNPLTPASRSTVIDLEGQTYYAEKAADLPALFQEVTDAWADALESGARFGDIQQAIRDRDVPRLKELWNTLVPLWDDRTFYDFVATSKAFAKLSFQHREVFGQVGFGTGGWDSDFPNSMLEIFRVVMTNCDDHQHLVVGGVEQVPQGIWRHVPERCAHWPEGTSLSSLHGGAPRTGVKRIARASDGRLAVTDNWGDCRHYAAVLTTCQSWLLTTQIDCEESLFSQKMWMALDRTRYMQSSKTFVMVDRPFWKDKDPETGRDLMSMTLTDRLTRGTYLFDNGDDKPGVICLSYAWMSDALKMLPHPVEKRVQLALDALKKIYPKTDIAGHIIGDPITISWEADPHFLGAFKGALPGHYRYNQRMYAHFMQAQMPVEQRGIFIAGDDVSWTPAWVEGAVQTSLNAVWGIMNHFGGKTHADNPGPGDVFDEIGQIALAD
notes: L-amino acid oxidase/monooxygenase (L-AAO/MOG), Pseudomonas sp; AIU 813; FAD-dependent; expression plasmid pET15b-laao/mog; Carries FAD; The biological dimer is chains A-C and B-D of the crystal; also called L‐AAO/MOG; wild‐type enzyme
binding result [5]: binds
Km (purified protein [6]; monooxygenase reaction): 33 ± 1 µM
kcat (purified protein [6]; monooxygenase reaction): 6.7 s⁻¹
kcat/Km (purified protein [6]; monooxygenase reaction): 200000 M⁻¹ s⁻¹
Km (purified protein [6]; oxidase reaction): 22 ± 4 µM
kcat (purified protein [6]; oxidase reaction): 1.5 s⁻¹
kcat/Km (purified protein [6]; oxidase reaction): 68000 M⁻¹ s⁻¹
Km (purified protein [7]; monooxygenase reaction): 67 ± 5 µM
kcat (purified protein [7]; monooxygenase reaction): 1.6 ± 0.2 s⁻¹
kcat/Km (purified protein [7]; monooxygenase reaction): 24000 ± 1000 M⁻¹ s⁻¹
Km (purified protein [7]; oxidase reaction): 48 ± 1 µM
kcat (purified protein [7]; oxidase reaction): 0.41 ± 0.02 s⁻¹
kcat/Km (purified protein [7]; oxidase reaction): 8500 ± 650 M⁻¹ s⁻¹
Km (purified protein [8]; monooxygenase reaction): 61 ± 6 µM
kcat (purified protein [8]; monooxygenase reaction): 4.5 ± 0.1 s⁻¹
kcat/Km (purified protein [8]; monooxygenase reaction): 74000 ± 5000 M⁻¹ s⁻¹
Km (purified protein [8]; oxidase reaction): 27 ± 3 µM
kcat (purified protein [8]; oxidase reaction): 0.8 ± 0.09 s⁻¹
kcat/Km (purified protein [8]; oxidase reaction): 30000 ± 1000 M⁻¹ s⁻¹
